In patent publication US20220153863A1 (published 2022):

T1: PRAME peptide, amino acids Arg310-Asn331 of PRAME, conjugated to biotin or BSA (UniProt P78395 310-331, conjugated to either biotin or bovine serum albumin (BSA); site not stated)
T1 construct: range 310-331
T1 peptide (looked up): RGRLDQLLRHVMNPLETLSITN

B1: B029_2D4 scFv displayed on phage (monoclonal phage clone) (scFv, V domains shown)
VH: EVQLLESGGGLVQPGGSLRLSCAASGFTFSSYAMSWVRQAPGKGLEWVSAISGSGDSTYYADSVKGRFTISRDNSKNTLYLQMNSLRAEDTAVYYCARDVDSFEGGMDVWGQGTTVTVSS
VL: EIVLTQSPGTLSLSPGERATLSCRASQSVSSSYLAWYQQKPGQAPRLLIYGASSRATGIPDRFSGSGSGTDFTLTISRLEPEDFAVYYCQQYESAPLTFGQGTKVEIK
B2: B029_1A6 scFv displayed on phage (monoclonal phage clone) (scFv, V domains shown)
VH: EVQLLESGGGLVQPGGSLRLSCAASGFTFSNYAMSWVRQAPGKGLEWVSAISGSGGSTYYADSVKGRFTISRDNSKNTLYLQMNSLRAEDTAVYYCARGGLVLSPWGQGTLVTVSS
VL: EIVLTQSPGTLSLSPGERATLSCRASQSVSSNSLAWYQQKPGQAPRLLIYDASSRATGIPDRFSGSGSGTDFTLTISRLEPEDFAVYYCQQYESSPLTFGQGTKVEIK
B3: B029_2H1 scFv displayed on phage (monoclonal phage clone) (scFv, V domains shown)
VH: EVQLLESGGGLVQPGGSLRLSCAASGFTFTDYAMSWVRQAPGKGLEWVSWISGSGGSTKYADSVKGRFTISRDNSKNTLYLQMNSLRAEDTAVYYCAKCYDILTGYSIDYGMDVWGQGTTVTVSS
VL: EIVLTQSPGTLSLSPGERATLSCRASQSVSSTYLAWYQQKPGQAPRLLIYGASSRATGIPDRFSGSGSGTDFTLTISRLEPEDFAVYYCQQYSSAPFTFGQGTKVEIK
B4: B029_1H1 scFv displayed on phage (monoclonal phage clone) (scFv, V domains shown)
VH: EVQLLESGGGLVQPGGSLRLSCAASGFTFSSYAMSWVRQAPGKGLEWVSEIDGEGDSTKYADSVKGRFTISRDNSKNTLYLQMNSLRAEDTAVYYCAKEYYDIFDGTDVWGQGTTVTVSS
VL: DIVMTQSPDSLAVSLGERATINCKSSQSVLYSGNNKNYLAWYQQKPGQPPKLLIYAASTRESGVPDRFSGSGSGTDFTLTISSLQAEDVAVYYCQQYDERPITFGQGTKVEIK
B5: B029_1A7 full-length human IgG1 (antibody, V domains shown)
VH: EVQLLESGGGLVQPGGSLRLSCAASGFTFSSYWMSWVRQAPGKGLEWVSDISGSGGSTYYADSVKGRFTISRDNSKNTLYLQMNSLRAEDTAVYYCASLPDSSGYYHWFDPWGQGTLVTVSS
VL: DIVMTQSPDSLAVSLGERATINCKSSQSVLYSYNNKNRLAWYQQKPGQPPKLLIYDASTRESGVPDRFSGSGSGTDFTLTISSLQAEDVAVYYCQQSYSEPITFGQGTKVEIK
B6: B029_1A7 scFv displayed on phage (monoclonal phage clone) (scFv, V domains shown)
VH: EVQLLESGGGLVQPGGSLRLSCAASGFTFSSYWMSWVRQAPGKGLEWVSDISGSGGSTYYADSVKGRFTISRDNSKNTLYLQMNSLRAEDTAVYYCASLPDSSGYYHWFDPWGQGTLVTVSS
VL: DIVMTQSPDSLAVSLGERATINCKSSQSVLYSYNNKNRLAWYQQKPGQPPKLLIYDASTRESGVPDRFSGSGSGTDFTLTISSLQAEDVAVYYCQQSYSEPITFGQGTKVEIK
B7: B029_1G7 scFv displayed on phage (monoclonal phage clone) (scFv, V domains shown)
VH: EVQLLESGGGLVQPGGSLRLSCAASGFTFTDSAMSWVRQAPGKGLEWVSDIDGSGSGGGTYYADSVKGRFTISRDNSKNTLYLQMNSLRAEDTAVYYCATDRGWGTFDFWGQGTLVTVSS
VL: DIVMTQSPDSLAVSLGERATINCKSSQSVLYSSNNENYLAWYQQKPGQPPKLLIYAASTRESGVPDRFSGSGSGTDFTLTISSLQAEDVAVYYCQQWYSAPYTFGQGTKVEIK

Columns and labels:
[1] = biological target: T1, PRAME peptide, amino acids …; experiment: ELISA with monoclonal phage supernatants
From the text: 184 PRAME binding phage clones yielded 35 membrane target hits with 6 unique sequences. Clones with unique antibody sequences were chosen for further analysis.

[2] = biological target: T2, PRAME (Preferentially Expressed Antigen in Melanoma) on PRAME+ cells (human, UniProt P78395 1-509); experiment: flow cytometry, titrated antibody on THP-1 cells
T2 construct: whole, on cells; Endogenous PRAME on the THP-1 human cell line; also called THP-1 cells
T2 sequence (P78395 whole entry): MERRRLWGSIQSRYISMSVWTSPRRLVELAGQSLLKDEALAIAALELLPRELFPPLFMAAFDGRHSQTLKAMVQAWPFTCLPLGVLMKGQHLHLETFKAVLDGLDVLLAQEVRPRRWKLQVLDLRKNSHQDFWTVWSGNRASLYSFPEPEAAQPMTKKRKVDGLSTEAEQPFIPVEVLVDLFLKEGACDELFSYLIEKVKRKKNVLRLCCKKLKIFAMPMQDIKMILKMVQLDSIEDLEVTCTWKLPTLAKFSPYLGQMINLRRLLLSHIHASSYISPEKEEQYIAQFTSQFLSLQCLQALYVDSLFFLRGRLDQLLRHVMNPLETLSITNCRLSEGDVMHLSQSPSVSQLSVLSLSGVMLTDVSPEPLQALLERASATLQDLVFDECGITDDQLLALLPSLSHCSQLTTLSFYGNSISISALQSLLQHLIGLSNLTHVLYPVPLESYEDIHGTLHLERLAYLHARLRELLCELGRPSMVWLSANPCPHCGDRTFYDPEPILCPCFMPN
From the text: MPA1 (Pankov et al., 2017), a rabbit anti-PRAME polyclonal antibody was included as reference for comparison.

Binder | binding result [1] | EC50 [2] [nM]
B1 | binds | 
B2 | binds | 
B3 | binds | 
B4 | binds | 
B5 |  | 1.45
B6 | binds | 
B7 | binds | 
